T1: Recombinant human NRP1 (R&D) (human, UniProt O14786 22-856)
T1 construct: Neuropilin-1 (NRP1), human; Soluble analyte in BLI; no catalogue number or tag is printed; also called Rh-NRP1; source: bought: R&D systems
T1 sequence (looked up): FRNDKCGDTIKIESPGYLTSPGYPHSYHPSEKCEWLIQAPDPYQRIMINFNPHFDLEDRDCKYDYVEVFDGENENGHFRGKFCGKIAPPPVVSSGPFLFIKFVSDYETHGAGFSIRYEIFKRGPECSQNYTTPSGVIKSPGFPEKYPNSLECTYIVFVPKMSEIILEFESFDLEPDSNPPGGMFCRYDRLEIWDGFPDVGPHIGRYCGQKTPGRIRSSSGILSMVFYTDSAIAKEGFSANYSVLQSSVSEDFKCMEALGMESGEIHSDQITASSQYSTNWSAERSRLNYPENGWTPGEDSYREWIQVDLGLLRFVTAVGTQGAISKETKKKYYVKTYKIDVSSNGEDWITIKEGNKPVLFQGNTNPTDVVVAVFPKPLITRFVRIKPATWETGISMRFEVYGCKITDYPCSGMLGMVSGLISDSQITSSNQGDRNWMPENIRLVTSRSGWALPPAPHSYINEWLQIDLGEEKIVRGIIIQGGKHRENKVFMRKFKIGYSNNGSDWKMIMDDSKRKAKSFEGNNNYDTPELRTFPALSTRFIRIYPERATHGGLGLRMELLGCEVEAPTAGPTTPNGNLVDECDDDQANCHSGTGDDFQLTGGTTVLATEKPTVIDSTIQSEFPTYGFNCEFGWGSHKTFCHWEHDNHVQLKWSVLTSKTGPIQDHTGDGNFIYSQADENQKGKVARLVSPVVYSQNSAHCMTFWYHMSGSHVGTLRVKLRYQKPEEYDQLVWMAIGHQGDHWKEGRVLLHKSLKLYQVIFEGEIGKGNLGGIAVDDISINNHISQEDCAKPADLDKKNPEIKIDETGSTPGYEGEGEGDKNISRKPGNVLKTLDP


Experiments:
[1] = molecular target: PD-1 on labeled cells (intercellular conjugate assay) (UniProt Q15116); test: intercellular conjugate assay; two cell populations labeled with CFSE or Violet Cell Trace, 2 x 10^5 of each mixed in FACS buffer, 45 minutes at 37 degrees Celsius; co-localization read by FACS
Sequence of PD-1 on labeled cells (intercellular conjugate assay) (Q15116 25-288): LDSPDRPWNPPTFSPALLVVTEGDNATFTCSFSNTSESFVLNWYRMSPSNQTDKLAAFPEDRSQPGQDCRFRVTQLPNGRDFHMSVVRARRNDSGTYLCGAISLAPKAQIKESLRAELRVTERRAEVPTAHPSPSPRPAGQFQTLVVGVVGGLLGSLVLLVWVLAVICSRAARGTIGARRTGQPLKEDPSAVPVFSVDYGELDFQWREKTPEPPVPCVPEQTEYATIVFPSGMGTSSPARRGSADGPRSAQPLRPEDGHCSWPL

[2] = molecular target: T1, Recombinant human NRP1 (R&D); test: BLI; BLItz system (ForteBio); human IgG fusion protein (25 ug/mL, 2 min) captured on anti-human IgG Fc capture sensors; protein analytes in 1x Kinetic Buffer (ForteBio); conditions: both partners purified

Sequence of PD-L1 on labeled cells (intercellular conjugate assay) (Q9NZQ7 19-290): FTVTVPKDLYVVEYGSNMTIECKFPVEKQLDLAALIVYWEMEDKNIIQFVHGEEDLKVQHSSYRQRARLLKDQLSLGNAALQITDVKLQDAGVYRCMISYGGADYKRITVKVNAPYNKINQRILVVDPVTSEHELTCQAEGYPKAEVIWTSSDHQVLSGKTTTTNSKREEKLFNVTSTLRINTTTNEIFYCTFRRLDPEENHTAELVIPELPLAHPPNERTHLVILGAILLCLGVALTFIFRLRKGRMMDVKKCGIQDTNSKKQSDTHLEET

Row | Molecule | percent co-localization [1] | binding result [2]
1 | PD-L2 on labeled cells (intercellular conjugate assay) (from UniProt Q9BQ51 20-273) (ligand) | 24% | 
2 | PD-L1 on labeled cells (intercellular conjugate assay) (from UniProt Q9NZQ7 19-290) (ligand) | 18% | 
3 | Human Sema3a-hIgG1 (R&D) (Fc fusion, UniProt Q14563 21-771, looked up, Semaphorin 3a (Sema3a), human; Commercial Fc fusion; no catalogue number; also called Sema3a-Ig; Semaphorin3a-hIgG1; source: bought: R&D systems) NYQNGKNNVPRLKLSYKEMLESNNVITFNGLANSSSYHTFLLDEERSRLYVGAKDHIFSFDLVNIKDFQKIVWPVSYTRRDECKWAGKDILKECANFIKVLKAYNQTHLYACGTGAFHPICTYIEIGHHPEDNIFKLENSHFENGRGKSPYDPKLLTASLLIDGELYSGTAADFMGRDFAIFRTLGHHHPIRTEQHDSRWLNDPKFISAHLISESDNPEDDKVYFFFRENAIDGEHSGKATHARIGQICKNDFGGHRSLVNKWTTFLKARLICSVPGPNGIDTHFDELQDVFLMNFKDPKNPVVYGVFTTSSNIFKGSAVCMYSMSDVRRVFLGPYAHRDGPNYQWVPYQGRVPYPRPGTCPSKTFGGFDSTKDLPDDVITFARSHPAMYNPVFPMNNRPIVIKTDVNYQFTQIVVDRVDAEDGQYDVMFIGTDVGTVLKVVSIPKETWYDLEEVLLEEMTVFREPTAISAMELSTKQQQLYIGSTAGVAQLPLHRCDIYGKACAECCLARDPYCAWDGSACSRYFPTAKRRTRRQDIRNGDPLTHCSDLHHDNHHGHSPEERIIYGVENSSTFLECSPKSQRALVYWQFQRRNEERKEEIRVDDHIIRTDQGLLLRSLQQKDSGNYLCHAVEHGFIQTLLKVTLEVIDTEHLEELLHKDDDGDGSKTKEMSNSMTPSQKVWYRDFMQLINHPNLNTMDEFCEQVWKRDRKQRRQRPGHTPGNSNKWKHLQENKKGRNRRTHEFERAPRSV |  | binds
